Measurements published in patent publication US20200338203A1 (Bicycle, published 2020).
Read-outs that look alike come from different tables or passages of the source. Numbered stars: 1 amine (or outer) side, 2 acyl side, 3 side chain; on linkers, the order of the positions; unused ones are H or OH. Bridge positions count the residues as written; N and C are the ends. Square brackets hold non-standard residues; d marks the D form. Ends that are not written are not given here. DM1 = thiol-containing maytansine derivative (cytotoxic agent); AlexaFluor488 = AlexaFluor488 fluorescent dye label; disulphide linker of formula (B) = not defined here; K(FI) = lysine carrying a fluorescein label (FI); 1Nal = N[C@@H](Cc1cccc2ccccc12)C(=O)O; TBMB = c1c(C[*:1])cc(C[*:3])cc1C[*:2]; Gly(cPent) = N[C@H](C(=O)O)C1CCCC1; hArg = N=C(N)NCCCC[C@H](N)C(=O)O; Tle = CC(C)(C)[C@H](N)C(=O)O; AF488 = AlexaFluor488 label; Aib = CC(C)(N)C(=O)O; βAla = NCCC(=O)O; Sar = CNCC(=O)O

Assays:
Human EphA2 (Ecto) [1] = target: T1, Human EphA2 (Ecto) (Human, UniProt P29317 24-537); assay: FP direct binding
T1 construct: extracellular domain

Mouse EphA2 (Ecto) [2] = target: T2, Mouse EphA2 (Ecto) (Mouse, UniProt Q03145 26-538); assay: FP direct binding
T2 construct: extracellular domain; not shown: Fc fusion or C-terminal polyHis

[3] = target: Human & mouse EphA3 (Human & mouse) (UniProt P29320); assay: FP direct binding, selectivity
dog EphA2 (Dog) = assay: FP direct binding, selectivity
human EphA4 (Human) = human EphA4 (Human) (UniProt P54764); assay: FP direct binding, selectivity
[4] = target: rat & mouse EphA4 (rat & mouse) (UniProt D3ZZK3); assay: FP direct binding, selectivity
rat EphA3 (Rat) = rat EphA3 (Rat) (UniProt O08680); assay: FP direct binding, selectivity
Human EphA1 = target: T3, Human EphA1 (Human, UniProt P21709 26-547); assay: FP direct binding, selectivity
T3 construct: extracellular domain; also called EphA1 (Ecto), Human
T3 sequence (looked up): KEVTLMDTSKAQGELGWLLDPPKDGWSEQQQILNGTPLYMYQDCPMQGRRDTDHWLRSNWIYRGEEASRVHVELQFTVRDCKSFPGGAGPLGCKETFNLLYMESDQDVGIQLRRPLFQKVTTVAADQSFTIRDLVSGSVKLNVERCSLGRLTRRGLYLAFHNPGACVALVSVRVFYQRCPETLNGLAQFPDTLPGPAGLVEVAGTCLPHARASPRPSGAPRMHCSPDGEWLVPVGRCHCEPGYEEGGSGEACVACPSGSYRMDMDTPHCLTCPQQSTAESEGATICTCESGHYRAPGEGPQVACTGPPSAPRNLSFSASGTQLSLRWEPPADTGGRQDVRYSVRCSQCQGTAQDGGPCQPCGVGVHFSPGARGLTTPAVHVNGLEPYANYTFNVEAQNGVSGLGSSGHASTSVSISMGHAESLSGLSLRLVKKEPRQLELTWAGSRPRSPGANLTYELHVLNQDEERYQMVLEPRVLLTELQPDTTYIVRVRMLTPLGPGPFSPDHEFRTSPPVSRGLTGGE
Description: (§1) The gain used for analysis was determined for each tracer at the end of the 60 minutes where there was no protein in the well. Data was analysed using Systat Sigmaplot version 12.0. mP values were fit to a user defined quadratic equation to generate a Kd value: f=ymin+(ymax−ymin)/Lig*((x+Lig+Kd)/2-sqrt((((x+Lig+Kd)/2)\hat{ }2)−(Lig*x))). “Lig” was a defined value of the concentration of tracer used.

mouse EphA2 = target: T4, mouse EphA2 (Mouse, UniProt Q03145 26-538); assay: FP direct binding, selectivity
T4 construct: extracellular domain; C-terminal polyHis; also called EphA2 (Ecto), Mouse
Description: as §1

rat EphA2 = rat EphA2 (Rat, UniProt D3ZBN3 27-205); assay: FP direct binding, selectivity
Description: as §1

Human EphA2 (Ecto) [5] = target: T1, Human EphA2 (Ecto); assay: FP competition; competitor Compound 1
Description: (§2) Peptides without a fluorescent tag were tested in competition with a peptide with a fluorescent tag and a known Kd (Table 2). Peptides were diluted to an appropriate concentration in assay buffer as described in the direct binding assay with a maximum of 5% DMSO, then serially diluted 1 in 2. Five μL of diluted peptide was added to the plate followed by 10 μL of human or mouse EphA2 (Table 1) at a fixed concentration which was dependent on the fluorescent peptide used (Table 2), then 10 μL fluorescent peptide added. Measurements were conducted as for the direct binding assay, however the gain was determined prior to the first measurement.

Human EphA2 (Ecto) [6] = target: T1, Human EphA2 (Ecto); assay: FP competition; competitor Compound 12
Description: as §2

Human EphA2 (Ecto) [7] = target: T1, Human EphA2 (Ecto); assay: FP competition; competitor Compound 66
Description: as §2

dog EphA2 = dog EphA2 (Dog, UniProt A0A286R219 28-206); assay: FP direct binding, selectivity
Description: as §1

rat EphB1 = target: T5, rat EphB1 (Rat, UniProt P09759 18-540); assay: FP direct binding, selectivity
T5 construct: extracellular domain; also called EphB1 (Ecto), Rat
T5 sequence (looked up): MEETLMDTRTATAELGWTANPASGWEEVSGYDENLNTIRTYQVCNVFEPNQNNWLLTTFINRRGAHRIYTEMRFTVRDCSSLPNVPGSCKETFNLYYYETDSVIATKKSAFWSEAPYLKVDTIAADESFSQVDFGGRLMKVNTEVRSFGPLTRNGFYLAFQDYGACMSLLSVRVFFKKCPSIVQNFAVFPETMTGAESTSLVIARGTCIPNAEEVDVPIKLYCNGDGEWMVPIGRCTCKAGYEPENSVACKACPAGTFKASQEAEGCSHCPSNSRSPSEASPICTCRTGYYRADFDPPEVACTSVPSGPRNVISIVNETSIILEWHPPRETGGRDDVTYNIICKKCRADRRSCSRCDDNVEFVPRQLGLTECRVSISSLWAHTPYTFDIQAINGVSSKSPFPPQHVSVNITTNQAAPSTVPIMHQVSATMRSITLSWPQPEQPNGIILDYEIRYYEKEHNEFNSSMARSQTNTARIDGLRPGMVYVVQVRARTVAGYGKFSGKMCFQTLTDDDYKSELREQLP
Description: as §1

Human EphA2 (Ecto) [8] = target: T1, Human EphA2 (Ecto); assay: FP direct binding; remark: listed apart in the source
Description: as §1

Human EphA2 = target: T6, Human EphA2 (Human, UniProt P29317 24-537); assay: FP competition; competitor: fluorescent Compound 12
T6 construct: extracellular domain; also called EphA2 (Ecto), Human
Description: as §2

Mouse EphA2 (Ecto) [9] = target: T2, Mouse EphA2 (Ecto); assay: FP direct binding; remark: listed apart in the source
Description: as §1

Human & mouse EphA3 (Human & mouse), sequence (P29320 21-541): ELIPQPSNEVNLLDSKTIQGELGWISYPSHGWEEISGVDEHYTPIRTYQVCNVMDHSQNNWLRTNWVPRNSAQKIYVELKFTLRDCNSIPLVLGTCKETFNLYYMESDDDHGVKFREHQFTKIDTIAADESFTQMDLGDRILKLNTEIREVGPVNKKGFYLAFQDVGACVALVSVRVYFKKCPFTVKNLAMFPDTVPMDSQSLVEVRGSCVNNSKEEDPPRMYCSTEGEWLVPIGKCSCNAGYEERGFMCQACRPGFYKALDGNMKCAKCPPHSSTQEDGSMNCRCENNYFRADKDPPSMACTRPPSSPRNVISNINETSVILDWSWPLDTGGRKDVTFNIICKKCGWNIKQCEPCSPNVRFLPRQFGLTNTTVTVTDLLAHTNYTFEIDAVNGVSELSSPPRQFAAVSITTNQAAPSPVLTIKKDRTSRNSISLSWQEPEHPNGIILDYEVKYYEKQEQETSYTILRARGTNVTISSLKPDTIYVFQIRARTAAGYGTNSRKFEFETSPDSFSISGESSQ
rat EphA3 (Rat), sequence (O08680 21-541): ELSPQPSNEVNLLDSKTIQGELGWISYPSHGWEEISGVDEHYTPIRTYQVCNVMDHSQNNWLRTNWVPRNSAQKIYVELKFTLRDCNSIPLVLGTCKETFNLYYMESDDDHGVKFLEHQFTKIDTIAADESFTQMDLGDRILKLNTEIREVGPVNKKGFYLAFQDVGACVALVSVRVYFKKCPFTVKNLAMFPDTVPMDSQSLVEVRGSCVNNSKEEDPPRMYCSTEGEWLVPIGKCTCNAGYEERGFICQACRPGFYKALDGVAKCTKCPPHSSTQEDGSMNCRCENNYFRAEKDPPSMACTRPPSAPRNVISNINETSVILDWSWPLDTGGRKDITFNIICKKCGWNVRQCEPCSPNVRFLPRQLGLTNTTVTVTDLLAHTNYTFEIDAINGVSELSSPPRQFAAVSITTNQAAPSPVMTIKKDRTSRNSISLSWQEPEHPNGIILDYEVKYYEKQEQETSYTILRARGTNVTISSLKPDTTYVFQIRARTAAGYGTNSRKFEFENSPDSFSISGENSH
T1 sequence (P29317 24-537): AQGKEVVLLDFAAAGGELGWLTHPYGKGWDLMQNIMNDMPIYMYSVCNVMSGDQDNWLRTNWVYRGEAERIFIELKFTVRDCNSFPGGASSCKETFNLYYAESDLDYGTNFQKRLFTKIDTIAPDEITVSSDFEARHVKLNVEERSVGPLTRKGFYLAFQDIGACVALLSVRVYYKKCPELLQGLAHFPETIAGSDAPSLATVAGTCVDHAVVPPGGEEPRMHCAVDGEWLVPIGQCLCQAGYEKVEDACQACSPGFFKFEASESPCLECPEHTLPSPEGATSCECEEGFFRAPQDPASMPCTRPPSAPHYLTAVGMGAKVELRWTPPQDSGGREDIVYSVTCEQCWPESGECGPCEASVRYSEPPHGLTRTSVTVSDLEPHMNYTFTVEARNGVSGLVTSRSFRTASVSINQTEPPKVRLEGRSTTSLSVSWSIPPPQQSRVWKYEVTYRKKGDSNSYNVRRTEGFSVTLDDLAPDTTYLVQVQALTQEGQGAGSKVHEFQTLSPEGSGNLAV
human EphA4 (Human), sequence (P54764 20-547): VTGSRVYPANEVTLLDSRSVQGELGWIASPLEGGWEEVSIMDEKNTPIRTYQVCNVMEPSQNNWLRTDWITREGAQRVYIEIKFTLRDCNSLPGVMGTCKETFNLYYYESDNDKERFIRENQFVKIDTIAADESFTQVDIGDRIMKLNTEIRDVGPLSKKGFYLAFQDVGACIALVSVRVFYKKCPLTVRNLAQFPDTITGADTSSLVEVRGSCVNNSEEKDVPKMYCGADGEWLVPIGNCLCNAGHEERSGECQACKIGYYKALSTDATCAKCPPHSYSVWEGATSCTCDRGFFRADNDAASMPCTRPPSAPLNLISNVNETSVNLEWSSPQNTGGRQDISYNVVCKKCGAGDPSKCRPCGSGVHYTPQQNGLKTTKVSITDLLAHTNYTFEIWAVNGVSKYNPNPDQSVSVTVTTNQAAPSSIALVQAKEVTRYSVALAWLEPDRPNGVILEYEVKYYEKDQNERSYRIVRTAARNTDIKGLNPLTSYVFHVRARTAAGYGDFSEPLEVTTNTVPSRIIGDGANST
T2 sequence (Q03145 26-538): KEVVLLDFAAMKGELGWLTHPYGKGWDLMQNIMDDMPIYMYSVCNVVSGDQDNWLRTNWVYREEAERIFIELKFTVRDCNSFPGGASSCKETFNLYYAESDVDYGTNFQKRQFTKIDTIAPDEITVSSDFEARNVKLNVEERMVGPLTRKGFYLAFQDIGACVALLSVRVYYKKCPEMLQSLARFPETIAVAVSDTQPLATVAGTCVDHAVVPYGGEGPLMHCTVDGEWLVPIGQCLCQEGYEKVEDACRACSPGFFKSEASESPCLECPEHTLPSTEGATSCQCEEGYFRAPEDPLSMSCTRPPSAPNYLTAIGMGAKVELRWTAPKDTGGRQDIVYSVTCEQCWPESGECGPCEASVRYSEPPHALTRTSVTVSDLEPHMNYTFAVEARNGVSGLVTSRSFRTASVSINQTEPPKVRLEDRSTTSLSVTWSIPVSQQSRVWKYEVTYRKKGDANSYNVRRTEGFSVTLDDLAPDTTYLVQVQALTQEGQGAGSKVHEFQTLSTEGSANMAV
T4 sequence (Q03145 26-538): as above
T6 sequence (P29317 24-537): as the sequence (P29317 24-537) above

## {AF488-βAla}-[Sar][Sar][Sar][Sar][Sar][Sar][Sar][Sar][Sar][Sar]H[dD][Gly(cPent)]PCP[1Nal]G[Aib]F[1Nal]CP[Tle]N[hArg]P[dD]C (linker 15-22-29 via TBMB) [Compound 147]
Human EphA2 (Ecto) [1]
  Kd: 0.00107 µM
Mouse EphA2 (Ecto) [2]
  Kd: 0.00344 µM
[3]
  Kd: 0.0825 µM
Dog EphA2 (Dog)
  Kd: 0.00358 µM
Human EphA4 (Human)
  Kd: 7440 µM
[4]
  Kd: 1000 µM
Rat EphA3 (Rat)
  Kd: 0.221 µM
Human EphA1
  Kd: 1.22 µM
Mouse EphA2
  Kd: 0.00344 µM
Rat EphA2
  Kd: 0.00115 µM

## ACVPQGIWCALQFEPCA (linker 2-9-16 via TBMB) [Compound 63]
Human EphA2 (Ecto) [5]
  Ki: 0.144 µM
Human EphA2 (Ecto) [6]
  Ki: 0.0922 µM
Human EphA2 (Ecto) [7]
  Ki: 0.0825 µM

## ADVTCPWGPFWCPVNRPGCA (N-terminal Fl-G-Sar5 before the entry; three Cys cyclised on TBMB, bicyclic peptide, fluorescent) [Compound 18]
Mouse EphA2
  Kd: 0.00402 µM
Rat EphA2
  Kd: 0.00172 µM
Dog EphA2
  Kd: 0.00357 µM
Rat EphB1
  Kd: 1.42 µM

## ACPWGPAWCPVHGKTCA (linker 2-9-16 via TBMB) [Compound 41]
Human EphA2 (Ecto) [5]
  Ki: 0.263 µM

## {AF488-βAla}-[Sar][Sar][Sar][Sar][Sar][Sar][Sar][Sar][Sar][Sar]H[dD]VPC[Aib][1Nal]G[Aib]F[1Nal]CP[Tle]NR[Aib][dD]C (linker 15-22-29 via TBMB) [Compound 141]
Human EphA2 (Ecto) [1]
  Kd: 0.00265 µM
Mouse EphA2 (Ecto) [2]
  Kd: 0.0065 µM
Dog EphA2 (Dog)
  Kd: 0.0133 µM
Human EphA4 (Human)
  Kd: 238 µM
[4]
  Kd: 1.89 µM
Rat EphA3 (Rat)
  Kd: 0.137 µM
Mouse EphA2
  Kd: 0.0065 µM
Rat EphA2
  Kd: 0.00233 µM

## {AF488-βAla}-[Sar][Sar][Sar][Sar][Sar][Sar][Sar][Sar][Sar][Sar]H[dD]VPCPWGPFWCPVNRPGCA (linker 15-22-29 via TBMB, bicyclic peptide, fluorescent)
Mouse EphA2
  Kd: 0.0008 µM
Rat EphA2
  Kd: 0.00036 µM
Dog EphA2
  Kd: 0.00217 µM

## {AlexaFluor488-βAla}-[Sar][Sar][Sar][Sar][Sar][Sar][Sar][Sar][Sar][Sar]ACPWGPFWCPVNRPGC (linker 12-19-26 via TBMB, bicyclic peptide, fluorescent) [Compound 68]
Rat EphA2
  Kd: 0.0159 µM
Dog EphA2
  Kd: 0.0319 µM

## ACRNIPTMCPFGPVWCA (linker 2-9-16 via TBMB) [Compound 32]
Human EphA2 (Ecto) [5]
  Ki: 0.0834 µM

## ACPWGPFWCPVNRPGC (N-terminal AlexaFluor488-G-Sar5 before the entry; three Cys cyclised on TBMB, bicyclic peptide, fluorescent) [Compound 67]
Rat EphA2
  Kd: 0.0265 µM
Dog EphA2
  Kd: 0.0614 µM

## ACMNDWLCQLGWTCA[Sar][Sar][Sar][Sar][Sar][Sar]-{K(FI)} (linker 2-8-14 via TBMB) [Compound 6]
Human EphA2 (Ecto) [8]
  Kd: 0.00425 µM

## ACPWGPAWCPVNRPGCAGAAA (linker 2-9-16 via TBMB) [Compound 45]
Human EphA2 (Ecto) [6]
  Ki: 0.0992 µM
Human EphA2 (Ecto) [7]
  Ki: 0.117 µM

B1: BDC-5 (peptide)
peptide: {DM1-disulphide linker of formula (B)-βAla}-[Sar][Sar][Sar][Sar][Sar][Sar][Sar][Sar][Sar][Sar]ACPWAPFWCAVNRPGC
modifications: linker 12-19-26 via TBMB; reading uncertain
notes: DM1 conjugate; also called Bicyclic Peptide Drug Conjugate BDC-5; Compound 303, Formula (B)
Human EphA2
  Ki: > 1 µM

## ACTTGSIWCALQFEPCA (linker 2-9-16 via TBMB) [Compound 64]
Human EphA2 (Ecto) [6]
  Ki: 0.41 µM
Human EphA2 (Ecto) [7]
  Ki: 0.0634 µM

## {AF488-βAla}-[Sar][Sar][Sar][Sar][Sar][Sar][Sar][Sar][Sar][Sar]H[dD]VPCP[1Nal]G[Aib]F[1Nal]CP[Tle]NR[Aib][dD]C (linker 15-22-29 via TBMB) [Compound 145]
Human EphA2 (Ecto) [1]
  Kd: 0.00217 µM
Mouse EphA2 (Ecto) [2]
  Kd: 0.0038 µM
[3]
  Kd: 0.129 µM
Dog EphA2 (Dog)
  Kd: 0.00499 µM
Human EphA4 (Human)
  Kd: 1.5 µM
[4]
  Kd: 2.54 µM
Rat EphA3 (Rat)
  Kd: 0.297 µM
Human EphA1
  Kd: 7.26 µM
Mouse EphA2
  Kd: 0.0038 µM
Rat EphA2
  Kd: 0.001 µM
Rat EphB1
  Kd: 5.42 µM

## {AF488-βAla}-[Sar][Sar][Sar][Sar][Sar][Sar][Sar][Sar][Sar][Sar]H[dD]VPCPWGPFWCPVNRPGCA (linker 15-22-29 via TBMB)
Human EphA2 (Ecto) [8]
  Kd: 0.00031 µM
Mouse EphA2 (Ecto) [9]
  Kd: 0.0008 µM

## {AF488-βAla}-[Sar][Sar][Sar][Sar][Sar][Sar][Sar][Sar][Sar][Sar]H[dD]VPCP[1Nal]G[Aib]F[1Nal]CP[Tle]NR[Aib]GC (linker 15-22-29 via TBMB) [Compound 144]
Human EphA2 (Ecto) [1]
  Kd: 0.00104 µM
Mouse EphA2 (Ecto) [2]
  Kd: 0.00256 µM
[3]
  Kd: 0.166 µM
Dog EphA2 (Dog)
  Kd: 0.00439 µM
Human EphA1
  Kd: 1.71 µM
Mouse EphA2
  Kd: 0.00256 µM
Rat EphA2
  Kd: 0.00125 µM
Rat EphB1
  Kd: 1.44 µM
